± gives the standard deviation of the averaged measurements.
What was measured:
MCF7 = experiment: percentage of EdU-negative (G0-arrested) nuclei per well, 72 h; higher = more G0 arrest; conditions: reference: sequence is the full UniProt precursor, the tested protein was the secreted form or ectodomain
hTERT-HMEC = experiment: as above; conditions: reference: sequence is the full UniProt precursor, the tested protein was the secreted form or ectodomain
[1] = protein concentration 0.0225 µM
[2] = protein concentration 0.01525 µM
[3] = protein concentration 0.1525 µM
[4] = protein concentration 0.00925 µM
[5] = protein concentration 0.0925 µM
[6] = protein concentration 0.03125 µM
[7] = protein concentration 0.3125 µM
[8] = protein concentration 0.018565 µM
[9] = protein concentration 0.18565 µM
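Further: secreted proteins added to cultured cells, EdU pulse at the end, nuclei found by Hoechst imaging, EdU status from nuclear versus surrounding ring intensity ratio, PBS as neutral control.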

## MSGGRAPAVLLGGVASLLLSFVWMPALLPVASRLLLLPRVLLTMASGSPPTQPSPASDSGSGYVPGSVSAAFVTCPNEKVAKEIARAVVEKRLAACVNLIPQITSIYEWKGKIEEDSEVLMMIKTQSSLVPALTDFVRSVHPYEVAEVIALPVEQGNFPYLQWVRQVTESVSDSITVLP
MCF7; [1]
  percentage of EdU-negative: 25.3 ± 1.7%
MCF7; protein concentration 0.225 µM
  percentage of EdU-negative: 25.2 ± 1.5%
hTERT-HMEC; [1]
  percentage of EdU-negative: 4.5 ± 0.32%
hTERT-HMEC; protein concentration 0.225 µM
  percentage of EdU-negative: 5.97 ± 0.34%

## MSGPGTAAVALLPAVLLALLAPWAGRGGAAAPTAPNGTLEAELERRWESLVALSLARLPVAAQPKEAAVQSGAGDYLLGIKRLRRLYCNVGIGFHLQALPDGRIGGAHADTRDSLLELSPVERGVVSIFGVASRFFVAMSSKGKLYGSPFFTDECTFKEILLPNNYNAYESYKYPGMFIALSKNGKTKKGNRVSPTMKVTHFLPRL
MCF7; [2]
  percentage of EdU-negative: 27.2 ± 2.4%
MCF7; [3]
  percentage of EdU-negative: 28.58 ± 0.13%
hTERT-HMEC; [2]
  percentage of EdU-negative: 5.05 ± 0.36%
hTERT-HMEC; [3]
  percentage of EdU-negative: 5.7993 ± 0.0024%

## MSILFYVIFLAYLRGIQGNNMDQRSLPEDSLNSLIIKLIQADILKNKLSKQMVDVKENYQSTLPKAEAPREPERGGPAKSAFQPVIAMDTELLRQQRRYNSPRVLLSDSTPLEPPPLYLMEDYVGSPVVANRTSRRKRYAEHKSHRGEYSVCDSESLWVTDKSSAIDIRGHQVTVLGEIKTGNSPVKQYFYETRCKEARPVKNGCRGIDDKHWNSQCKTSQTYVRALTSENNKLVGWRWIRIDTSCVCALSRKIGRT
MCF7; [4]
  percentage of EdU-negative: 25.37 ± 0.049%
MCF7; [5]
  percentage of EdU-negative: 27.3 ± 1.8%
hTERT-HMEC; [4]
  percentage of EdU-negative: 4.75 ± 0.28%
hTERT-HMEC; [5]
  percentage of EdU-negative: 6.72 ± 0.33%

## MSISLSSLILLPIWINMAQIQQGGPDEKEKTTALKDLLSRIDLDELMKKDEPPLDFPDTLEGFEYAFNEKGQLRHIKTGEPFVFNYREDLHRWNQKRYEALGEIITKYVYELLEKDCNLKKVSIPVDATESEPKSFIFMSEDALTNPQKLMVLIHGSGVVRAGQWARRLIINEDLDSGTQIPFIKRAVAEGYGVIVLNPNENYIEVEKPKIHVQSSSDSSDEPAEKRERKDKVSKETKKRRDFYEKYRNPQREKEMMQLYIRENGSPEEHAIYVWDHFIAQAAAENVFFVAHSYGGLAFVELMIQREADVKNKVTAVALTDSVHNVWHQEAGKTIREWMRENCCNWVSSSEPLDTSVESMLPDCPRVSAGTDRHELTSWKSFPSIFKFFTEASEAKTSSLKPAVTRRSHRIKHEEL [Q8WUF8]
MCF7; [1]
  percentage of EdU-negative: 24.1 ± 1.1%
MCF7; protein concentration 0.225 µM
  percentage of EdU-negative: 24 ± 0.46%
hTERT-HMEC; [1]
  percentage of EdU-negative: 4.387 ± 0.021%
hTERT-HMEC; protein concentration 0.225 µM
  percentage of EdU-negative: 5.5592 ± 0.0051%

## MSLMVVSMVCVGFFLLQGAWPHEGVHRKPSLLAHPGPLVKSEETVILQCWSDVRFQHFLLHREGKFKDTLHLIGEHHDGVSKANFSIGPMMQDLAGTYRCYGSVTHSPYQLSAPSDPLDIVITGLYEKPSLSAQPGPTVLAGESVTLSCSSRSSYDMYHLSREGEAHERRFSAGPKVNGTFQADFPLGPATHGGTYRCFGSFRDSPYEWSNSSDPLLVSVTGNPSNSWPSPTEPSSETGNPRHLHVLIGTSVVIILFILLLFFLLHRWCCNKKNAVVMDQEPAGNRTVNREDSDEQDPQEVTYAQLNHCVFTQRKITRPSQRPKTPPTDIIVYTELPNAEP
MCF7; [1]
  percentage of EdU-negative: 22.6 ± 0.43%
MCF7; protein concentration 0.225 µM
  percentage of EdU-negative: 26.6 ± 2.4%
hTERT-HMEC; [1]
  percentage of EdU-negative: 5.55 ± 0.17%
hTERT-HMEC; protein concentration 0.225 µM
  percentage of EdU-negative: 11.3 ± 1.1%

## MSLRLDTTPSCNSARPLHALQVLLLLSLLLTALASSTKGQTKRNLAKGKEESLDSDLYAELRCMCIKTTSGIHPKNIQSLEVIGKGTHCNQVEVIATLKDGRKICLDPDAPRIKKIVQKKLAGDESAD
MCF7; [6]
  percentage of EdU-negative: 26.14 ± 0.19%
MCF7; [7]
  percentage of EdU-negative: 26.53 ± 0.004%
hTERT-HMEC; [6]
  percentage of EdU-negative: 5.49 ± 1.9%
hTERT-HMEC; [7]
  percentage of EdU-negative: 4.65 ± 0.1%

## MSLSAFTLFLALIGGTSGQYYDYDFPLSIYGQSSPNCAPECNCPESYPSAMYCDELKLKSVPMVPPGIKYLYLRNNQIDHIDEKAFENVTDLQWLILDHNLLENSKIKGRVFSKLKQLKKLHINHNNLTESVGPLPKSLEDLQLTHNKITKLGSFEGLVNLTFIHLQHNRLKEDAVSAAFKGLKSLEYLDLSFNQIARLPSGLPVSLLTLYLDNNKISNIPDEYFKRFNALQYLRLSHNELADSGIPGNSFNVSSLVELDLSYNKLKNIPTVNENLENYYLEVNQLEKFDIKSFCKILGPLSYSKIKHLRLDGNRISETSLPPDMYECLRVANEVTLN
MCF7; [8]
  percentage of EdU-negative: 25.7 ± 0.65%
MCF7; [9]
  percentage of EdU-negative: 25.1 ± 0.99%
hTERT-HMEC; [8]
  percentage of EdU-negative: 5.59 ± 1.8%
hTERT-HMEC; [9]
  percentage of EdU-negative: 6.27 ± 1.2%

## MSLSFLLLLFFSHLILSAWAHGEKRLAPKGQPGPAATDRNPRGSSSRQSSSSAMSSSSASSSPAASLGSQGSGLEQSSFQWSPSGRRTGSLYCRVGIGFHLQIYPDGKVNGSHEANMLSVLEIFAVSQGIVGIRGVFSNKFLAMSKKGKLHASAKFTDDCKFRERFQENSYNTYASAIHRTEKTGREWYVALNKRGKAKRGCSPRVKPQHISTHFLPRFKQSEQPELSFTVTVPEKKKPPSPIKPKIPLSAPRKNTNSVKYRLKFRFG
MCF7; [6]
  percentage of EdU-negative: 27.9 ± 2.3%
MCF7; [7]
  percentage of EdU-negative: 28 ± 0.77%
hTERT-HMEC; [6]
  percentage of EdU-negative: 4.71 ± 0.44%
hTERT-HMEC; [7]
  percentage of EdU-negative: 5.28 ± 0.53%

Reference: the supplement of paper PMC11316812
